Results as given in patent US20180364256A1 (WAYNE STATE UNIVERSITY, published 2018).

T1: N-terminal fragment of human cardiac troponin T (HcTnT-N69) (human)
T1 construct: Recombinantly produced and purified; immobilised on microtiter plates in the ELISA; also the immunogen; also called N69 peptide; isolated (free, cleaved) HcTnT-N69 peptide
T1 peptide: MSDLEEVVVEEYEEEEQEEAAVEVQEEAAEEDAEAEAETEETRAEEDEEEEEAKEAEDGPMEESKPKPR


How the values were obtained:
[1] = target: T1, N-terminal fragment of human cardiac …; test: assay not named in the sentence (ELISA titration per the Examples)
Method: (§1) Purified HcTnT-N69 (also called N69) having the amino acid sequences shown in SEQ ID NO:1 or intact human cTnT antigen was immobilized on microtiter plates. After washing and blocking the plastic surface with 1% BSA and 0.05% Tween-20, the immobilized antigen was incubated with serial dilutions of the anti-N69 mAbs. Following washes to remove the unbound antibody, the plates were further incubated with HRP-conjugated second antibody followed by washes and H₂O₂-ABTS substrate reaction. A₄₁₅ₙₘ curve for each assay well was recorded by an automated microplate reader.

[2] = target: T1, N-terminal fragment of human cardiac …; test: indirect ELISA titration, antigen immobilised on plate
Method: as §1

Binder	binding result [1]	binding result [2]
mouse monoclonal antibody 2H3 (antibody, IgM, V domains shown, Mouse hybridoma mAb, IgM kappa (VH3/VL5); also called mAb 2H3; Class V mAb) VH: GGGLVQPKGSLKLSCAASGFTFNTYAMNWVRQAPGKGLEWVARIRSKSNNYATYYADSVKDRFTISRDDSQSMLYLQMNNLKTEDTAMYYCVRHDGVAWFAYWGQGTLVTVSA VL: LSLPVSLGDQASISCRSSQSIVHSNGNTYLEWYLQKPGQSPKLLIYKVSNRFSGVPDRFSGSGSGTDFTLKISRVKAEDLGVYYCFQGSHVPPTFGAGTKLELKR	binds	–
mouse monoclonal antibody 3H5 (antibody, IgM, V domains shown, Mouse hybridoma mAb, IgM kappa (VH3/VL4); also called mAb 3H5; Class IV mAb) VH: GGGLVQPKGSLKLSCAASGFTFNTYAMNWVRQAPGKGLEWVARIRSKSNNYATYYADSVKDRFTISRDDSQSMLYLQMNNLKTEDTAMYYCVRHDGVAWFAYWGQGTLVTVSA VL: LSLPVSLGDQASISCRSSQSIVHSNGNTYLEWYLQKPGQSPKLLIYKVSNRFSGVPDRFSGSGSGTDFTLKISRVEAEDLGVYYCFQGSHVPPTFGAGTKLELKR	–	binds
mouse monoclonal antibody 2D9 (antibody, IgM, V domains shown, Mouse hybridoma mAb, IgM kappa (VH3/VL7); also called mAb 2D9; Class VII mAb) VH: GGGLVQPKGSLKLSCAASGFTFNTYAMNWVRQAPGKGLEWVARIRSKSNNYATYYADSVKDRFTISRDDSQSMLYLQMNNLKTEDTAMYYCVRHDGVAWFAYWGQGTLVTVSA VL: LSLPVSLGDQASISCKSSQSIVHSNGNTYLKWYLQKPGQSPKLLIYKVSNRFSGVPDRFSGSGSGTDFTLKISRVKAEDLGVYYCFQGSHVPPTFGAGTKLELKR	binds	–
mouse monoclonal antibody 1D6 (antibody, V domains shown, Mouse hybridoma mAb, IgG1 kappa (VH1/VL1); they appear to lack the first N-terminal residues; also called mAb 1D6; Class I mAb) VH: GPELVKPGASVKISCKTSGYTFTENTIHWVKQSHGKSLEWVGGINPNNGGTNYNQKFKGRAALTVDKSSSTAYMELRSLTSEDSAVYYCARSWDWFAYWGQGTLVTVSA VL: LSLPVSLGDQASISCRSSQSLVHSNGNTYLHWYLQKPGQSPKLLVYKVSNRFSGVPDRFSGSGSGTDFTLKIIRVEAEDLGVYFCSQSTRIPFTFGSGTKLEMKR	–	binds

Next, values leading:

binding result [1]	binding result [2]	Binder
binds	–	mouse monoclonal antibody 4F5 (antibody, IgM, V domains shown, Mouse hybridoma mAb, IgM kappa (VH3/VL6); also called mAb 4F5; Class VI mAb) VH: GGGLVQPKGSLKLSCAASGFTFNTYAMNWVRQAPGKGLEWVARIRSKSNNYATYYADSVKDRFTISRDDSQSMLYLQMNNLKTEDTAMYYCVRHDGVAWFAYWGQGTLVTVSA VL: LSLPVSLGDQASISCKSSQSIVHSNGNTYLEWYLQKPGQSPKLLIYKVSNRFSGVPDRFSGSGSGTDFTLKISRVKAEDLGVYYCFQGSHVPPTFGAGTKLELKR
–	binds	mouse monoclonal antibody 2C1 (antibody, V domains shown, Mouse hybridoma mAb, IgG1 kappa (VH1/VL1), separately isolated hybridoma with the same variable regions as 1D6; also called Class I mAb; anti-N69 mAb) VH: GPELVKPGASVKISCKTSGYTFTENTIHWVKQSHGKSLEWVGGINPNNGGTNYNQKFKGRAALTVDKSSSTAYMELRSLTSEDSAVYYCARSWDWFAYWGQGTLVTVSA VL: LSLPVSLGDQASISCRSSQSLVHSNGNTYLHWYLQKPGQSPKLLVYKVSNRFSGVPDRFSGSGSGTDFTLKIIRVEAEDLGVYFCSQSTRIPFTFGSGTKLEMKR
–	binds	mouse monoclonal antibody 2A8 (antibody, V domains shown, Mouse hybridoma mAb, IgG1 kappa (VH1/VL1), separately isolated hybridoma with the same variable regions as 1D6; also called Class I mAb; anti-N69 mAb) VH: GPELVKPGASVKISCKTSGYTFTENTIHWVKQSHGKSLEWVGGINPNNGGTNYNQKFKGRAALTVDKSSSTAYMELRSLTSEDSAVYYCARSWDWFAYWGQGTLVTVSA VL: LSLPVSLGDQASISCRSSQSLVHSNGNTYLHWYLQKPGQSPKLLVYKVSNRFSGVPDRFSGSGSGTDFTLKIIRVEAEDLGVYFCSQSTRIPFTFGSGTKLEMKR
–	binds	mouse monoclonal antibody 2D11 (antibody, IgG1, V domains shown, Mouse hybridoma mAb, IgG1 kappa (VH1/VL2); also called mAb 2D11; Class II mAb) VH: GPELVKPGASVKISCKTSGYTFTENTIHWVKQSHGKSLEWVGGINPNNGGTNYNQKFKGRAALTVDKSSSTAYMELRSLTSEDSAVYYCARSWDWFAYWGQGTLVTVSA VL: LSLPVSLGDQASISCRSSQSLVHSNGNTYLHWYLQKPGQSPKLLVYKVSNRFSGVPDRFSGSGSGTDFTLKIIRVKAEDLGVYFCSQSTRIPFTFGSGTKLEMKR
–	binds	mouse monoclonal antibody 1E11 (antibody, IgG3, V domains shown, Mouse hybridoma mAb, IgG3 kappa (VH2/VL3); also called mAb 1E11; Class III mAb) VH: GAELAKPGASVKMSCKASGYTFTTYWMHWVKQRPGQGLEWIGFINPSTGYTEYNQKFKDKATLTADKSSSTAYMQLSSLTSGDSAVYYCARKSFAYWGHGTLVTVSA VL: not shown
